Numbering of substitutions follows the chain as printed. In names and notes the source's numbering stands.
B1: hSTOM(SPFH)-[R125A] (domain or fragment, human, UniProt P27105 94-202, looked up)
chain: VDMRTISFDIPPQEILTKDSVTISVDGVVYYAVQNATLAVANITNADSATRLLAQTTLRNVLGTKNLSQILSDREEIAHNMQSTLDDATDAWGIKVERVEIKDVKLPVQ
notes: human stomatin (STOM), SPFH domain, residues 94-202, with R125A; Same construct as m1 with one alanine substitution (QuikChange); source: E. coli BL21 (DE3), purified (DEAE Sepharose, Glutathione Sepharose 4 Fast Flow, thrombin cleavage, Superdex 75)
B2: hSTOM(SPFH)-[K188A] (domain or fragment, human, UniProt P27105 94-202, looked up)
chain: B1 chain with A32R, K95A
notes: human stomatin (STOM), SPFH domain, residues 94-202, with K188A; Same construct as m1 with one alanine substitution (QuikChange); source: E. coli BL21 (DE3), purified (DEAE Sepharose, Glutathione Sepharose 4 Fast Flow, thrombin cleavage, Superdex 75)

Target: the molecule itself
Assay: light scattering at 320 nm; lyophilized protein suspended to 400 uM in 50 mM sodium phosphate pH 6.0, 100 mM NaCl or 50 mM bis-Tris/HCl pH 6.0, 100 mM NaCl (mutants also at high phosphate); dissolution followed over time

Protein | binding result
B1 | binds
B2 | binds

From paper PMC9157467, “A cryptic phosphate-binding pocket on the SPFH domain of human stomatin that regulates a novel fibril-like self-assembly” (Current Research in Structural Biology, 2022)
